Experiment: yeast display, Sf9 membrane polyspecificity reagent, FACS + sequencing; frameworks hold sequencing errors
Summary of the method: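 A nanobody's polyreactivity label depends on the gate it was sorted from. Yeast display cells were stained with 10% biotinylated, detergent-solubilized Sf9 membrane reagent for 1 hour at 4 °C, enriched on streptavidin microbeads and sorted by FACS. The low and high (top ~1%) gates were set on anti-HA fluorescence for expression and streptavidin fluorescence for reagent binding.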

Sequence | polyreactivity (PSR sort gate)
QVQLVESAGGLVQAGGSLRLSCAASGYTFPYYTMGWYRQAPGKERELVATITRRGDSTYYADSVKGRFTISRDNAKNTVYLQMNSLKPEDTAVYYCNTASYGRHQFRKSSKMDYWGQGTQVTVSS | high polyreactivity
QVQLVESAGGLVQAGGSLRLSCAASGYTFVNYAMGWYRQAPGKERELVAAISRSGGSTYYADSVKGRFTISRDHAKNTVYLQMNSLKPEDTAVYYCAKVVQGDHPYDYWGQGTQVTVSS | high polyreactivity
QVQLVESAGGLVQAGGSLRLSCAASGYTSSLNAMGWYRQAPGKERELVARITTDGTSTYYADSVKGRFTISRDNAKNTVYLQMNSLKPEDTAVYYCNKRSHLYGNTPYYYWGQGTQVTVSS | low polyreactivity
QVQLVESAGGLVQAGGSLRLSCAPSGSILASNAMGCYRQAPGKDRELVSAITTSGGSTYYADYVKGRFTISLDNAKNTVYLQMNSLKPEDTAVYYCNAEYSRGRWLRYGYWGQGTQVTVSS | high polyreactivity
QVQLVESAGGLVQAGGSLRLSCSASGLTFVPNAMGWYRQAPGKERELVATISSSGGRTTYADSVKGRFTISRDKAKNTVYLQMNSLKPEDTAVYYCADQGYWTGYDYWGQGTQVTVSS | high polyreactivity
QVQLVESAGGLVQAGGSLRLSCSASGTIIWFYAMGWYRQAPGKERELVAAITRSGGSTYYADSVKGRFTISRDNAKNTVYLQMNSLKPEDTAVYYCAAGTVDYRGYFEMYYWGQGTQVTVSS | low polyreactivity
QVQLVESAGGLVQAGGSLRLSSAASAFTFYSNAMGWYRHAPGKEREFVAAGSTYYADSVKGRFTISRDNAKNTVYLQMNSLKPEDTAVYYCAADSYDVSRRYEYEYWGEGTQVTVSS | low polyreactivity
QVQLVESAGGLVQAGGSLRLTCDASGSTFGYYAMGLYRQAPGKEMELVAAITSNDGSTNYADSVKGRFTISRDNAKNTVYLQMNSLKPEDTAVYYCNARYFVAVISSFDYWGQGTQVTVSS | low polyreactivity
QVQLVESAGGLVQAGGSLSLSCAASGRTFIRHAMGRDRQAPGKERELVAAINSGGITNYADSVKGRFTISRVNAKNTVFLKRNSLKPEDTAVYYCAAYKPWYVGLYPWYDYWGQGTQVTVSW | low polyreactivity
QVQLVESAGGLVQAGGSLSLSCAASGSMFIYNAMGWYRQAPGKERELVATISSGGSTTYADSVKGRFTISRDNAKNTVYLQMNSLKPEDTAVYYCATDDPPDQYFYLGYYYWGANDYWGQGTQVTVSS | low polyreactivity
QVQLVESAGGLVQAGGSLSLSCAATGSILQEYAMGSYRQAPGTERELVAAITRRGGNTYYADSVKGRFTISRDNAKNTVYLQMNSLKPEDTAVYYCAAPHGKYSWQYEYWGQGTQVTVSS | low polyreactivity
QVQLVESAGGLVQAGRSLRLSCAASGYTFAKYTKGWYREATGKERELVAAISRGGSTTYADSVKGRFTISRDNAKNTVYLQMHSLKPEDTAVYYCAADVHRVVLEYDYWGQGTQVTVSS | low polyreactivity
QVQLVESAGGLVQAGVSLRLSCAASGFTFGWYAMGWYRQAPGKERELVATISWSGSSTYYADSVKGRFTISRDNAKNTVYVQMNSLKPDDTAVYYCNAVYGRFVVLRYDYWGQGTQVTVSS | high polyreactivity
QVQLVESAGGLVQAVGSHRLSSATSGSIFSGNSMGWYRQAPGTQSELVADISQNGGRTYYADSVKGRFTISRDNAKYTVYLQINSLKPEDTGVYYCAARGWYRYGSVYYIGDYWGQGTQGTVSS | high polyreactivity
QVQLVESARGLVQAGGSLRLSCAASGFTFYKYAMGWYRQAPGKETELVDAISSGGRTNYADSVKGRFTISRDNAMNTVYLHMNSLNPEDTAVYFCAADRSYRSGYNYWGQGTQVTVSS | high polyreactivity
QVQLVESAVGLVQAGGSLRLSCAASGILFARYAMGWYRQAPGKERELVAVISGSGGSTYYADSVKGRFTISRDNAKNTVYLQMNSLKPEDTAVYYCNAEFESGHDLDWYDYWGQGTQVTVSS | low polyreactivity
QVQLVESCGCLVQAGGSLRLSCAASGIIFFPYAMGWYRQAPGKEREFVAAITSRRGSTYYADSVKGRFTISRDNPKNTVYLQMNILKPEDTAVYYCAAAWCAPSRFFSAFDYWGQGTQVTVSS | low polyreactivity
QVQLVESCGGLDQAGGSLRLSCAASGFMFHLYGMGWYRQAPGKEMEWVAAISSGGRTYYADSVKGRFTISRDNAKNTVYLQMNSLKPEDTAVYYCAVYVAYLYSYYYWGQGTQETVSS | low polyreactivity
QVQLVESCGGLVQAGASLRLSCAASGRTFSENAMGWYRQARGKEREFVAGNSFSGDGRTYYADSVKGRFTISRDNAKNTVYLQMNSLKPEDTAVYYCAAPHRSRTHELDYWGQGTQVTVSS | low polyreactivity
QVQLVESCGGLVQAGGSLRLSCAASGFIFDWYAMGWYRQAPGKVRELVAAITTDGGGTYYADSVKGRFTISRDNAKNNVYLQMNSLKPEDTAVYDCAADGVSTSPQYDYWGQGTQVTVSS | high polyreactivity
QVQLVESCGGLVQAGGSLRLSCAASGFIFTYYVMGWYRQAPGKERELVATISISDGTTYADSVKGRFTISRDNAKNTVYLQMNSLKPEDTAVYYCAADNSFTDNYWGQGTQVTVSS | low polyreactivity

Sequence | polyreactivity (PSR sort gate)
QVQLVESCGGLVQAGGSLRLSCAASGGTFGPYAMAWYRQAPGKEREFVARITGSGTRTYYADSVKGRFTISRDNAKNTVYLQMNSLKPEDTAVYYCATSHSRGSRGHDYWGQGTQVTVSS | low polyreactivity
QVQLVESCGGLVQAGGSLRLSCAASGLTFLAYDMGWYRQAPGKEREFVAAITGGGSTHYADSVKGRFTISRDNAKTTVYLQMNSLKTEDTAVYYCNADVYVYSVTSHYPSYRLDYWGQGTQVTVSS | high polyreactivity
QVQLVESCGGLVQAGGSLRLSCAASGRTFSLYTMGWYRQAPGKERELVATIRSRGGSTYYADSVKGRFTISRDNAKNTFYLQMNSLIPEDTAVYYCATVLRGPFLGWHGGPMYHWGQGTQVTVSS | low polyreactivity
QVQLVESCGGLVQAGGSLRLSCAASGRTIASYAMGWYRQAPGKERELVAAITSGGSTYYADSVKGRFTISRDNAMNTVYLQMNSLKPEDTAVYYCARKHAIWRGYDYWGQGTQVTVSS | low polyreactivity
QVQLVESCGGLVQAGGSLRLSCAASGSIFADYAMGWYRQAPGKEREFVAAITRSGTSTYYADSVKGRFTISRDNAKNTVYLQMTSLKPVDTPVYYCAKTEVLLYLYTLDYWGQGTQVTVSS | low polyreactivity
QVQLVESCGGLVQAGGSLRLSCAASGSIFPYYTMGWYRQAPWKERELVAAISGSGGSTYYADSVKGRFTISRDNAKNTVYLQMNSLKAEYTAVYYCAAYRRTWFDYWGQGTQVTVSS | high polyreactivity
QVQLVESCGGLVQAGGSLRLSCAASGSIFVGNAMGWYRQAPGKERELVAAIDASGGNTYYADSVKGRFTISRDNAKNTVYLQMNSLKPEDTAVYYCNKYGYWWWGTRESDYWGQGTQVTVSS | high polyreactivity
QVQLVESCGGLVQAGGSLRLSCAASGSTFAGYVMGWYRQAPGKERQFVAAISTSGGRTYYADSVKGRFTISRDNAKNTVYLQMNSLKPEDTAVYYCAARSVTYGGLGLYGYWGQGTQVTVSS | high polyreactivity
QVQLVESCGGLVQAGGSLRLSCAASGSTFASYAMGWYRQAPGKEREFVAAISRSGGSTYYADSVKGRFTISRDNAKNTVYLQMNSLKPEDTAVYYCAARSPSADEYYYWGQGTQVTVSS | low polyreactivity
QVQLVESCGGLVQAGGSLRLSCAASGSTFEEYAMGWYRQAPGKERELVASIRWSGGRTYYADSVKGRFTISRDNAKNTVYLQMNRLKPEDTAVYYCNKDYYITLHESEGKGGEMDYWGQGTQVTVSS | low polyreactivity
QVQLVESCGGLVQAGGSLRLSCAASGSTFINYAMGWYRQAPGKERELVAAYAYSVKGRFTISRDNAKITVYLQMKSLKPEDTAVYYCNAVTGDWGQGTQVTVSS | low polyreactivity
QVQLVESCGGLVQAGGSLRLSCSASGSTFVINAMGWYRQAPGKERELVAAISSGDNTNYADSVKGRFTISRDNAKNTVYLQMNSLKPEETAVYYCAALPAYLDYGARRSMDYWGQGTQVTVSS | low polyreactivity
QVQLVESCGRLVQAGGSLRISCAASGYTFSYYAMGWYRQAHGKERELVAAINYSGGRTYYADSVKGRFTISRDNAKNNVYLQMNSLKPEDTAVYYCSAYTRNGEYDYWGQGTQVTVSS | high polyreactivity
QVQLVESCRGLVQAGGSLRLICAASGLTFRYYSMGWYRQAPGKERELVASISWCGASTYYADSVKGRFTISRDNAKNTVYLQMISLKPEDTAVYYCNAGYSGSYDYWGQGTQVTVSS | high polyreactivity
QVQLVESDGGLVQAGGSLRLSCAASGIIFGYYVMGWYRPAPGKERELVASITSGGSTNYADSVKGRFTISRDNAKNTVYFQMNSLKPEDTAVYYCAAEERTDTIPGWRYPHDYWGQGTQVTVSS | low polyreactivity
QVQLVESGACLVQAGGRLRLSCAASGRICGLNAMVWYRQAPGKERELVASITYSGGSTYYADSVKGRFTISRDNAKNTVYLQMNSLKPEYTADYYCAADSWYYWYSTYDYWGQGTQVTVSS | high polyreactivity
QVQLVESGACLVQAGGSLRLSCAASGGIFYYYAMGWYRQAPGKERELVAVISPGGGRTYYADSVKGRFTISRDIAKNTVYLQKNSLKPEDTAVYYCARDSPGDGGREVARGSYNYWGQGTQVTVSS | high polyreactivity
QVQLVESGACLVQAGGSLRLSCAASGITLVNYAMGWYRQAPGKERELVAAISASGGSTYYADSVKGRFTISRDNAKNNVYLQMNSLKPEDTAVYYCAAEEEEFIYDYWGQGTQVTVSS | high polyreactivity
QVQLVESGAGIVQAGGSLRLSCAASGLTFTYYAMGWYRQAPGKERELVAAISRSGTGTYYADSVKGRFTISRDNAKNTVYLQMNSLTAEDTAVYYCNAVVRTYGYDYWGQGTQVTVSS | high polyreactivity
QVQLVESGAGIVQAGGSLRLSCAASGRIFSDYTMGWYRQAPGKERELVAAIDWSGGNTYYADSVKGRFTISRDNAKNTVYLQMNSLKPEDTAVYYCNADWTYPSAEREYWGQGTQVTVSS | low polyreactivity

Source: the nanobody polyreactivity screen of Harvey et al. (2022)
